These results are taken from publication PMC2172828 (The Journal of Cell Biology, 2003).

The assay deals with T1, GST–Cdc15p(1–405) (S. pombe, UniProt Q09822 1-405).
T1 sequence (looked up): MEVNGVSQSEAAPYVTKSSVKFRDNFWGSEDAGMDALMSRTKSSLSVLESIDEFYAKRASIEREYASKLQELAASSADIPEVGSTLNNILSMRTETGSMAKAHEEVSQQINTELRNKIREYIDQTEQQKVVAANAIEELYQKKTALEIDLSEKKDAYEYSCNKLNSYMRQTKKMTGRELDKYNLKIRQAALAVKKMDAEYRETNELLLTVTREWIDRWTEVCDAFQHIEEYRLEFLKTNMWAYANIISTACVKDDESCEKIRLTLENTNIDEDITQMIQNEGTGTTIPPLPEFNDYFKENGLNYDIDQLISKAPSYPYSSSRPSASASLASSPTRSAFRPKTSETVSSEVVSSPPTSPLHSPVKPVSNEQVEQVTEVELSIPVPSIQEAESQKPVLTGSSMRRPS
The assay can be described thus: pull-down.

B1: MBP–Myo1p(727–1041) (domain or fragment, S. pombe, UniProt Q9Y7Z8 727-1041, looked up)
chain: ATRIQRAWRSYVRRRSEAAACIQKLWNRNKVNMELERVRNEGTKLLQGKKQRRRYSILGSRKFYGDYLSASKPNGTLWNTCGLSQNDHVIFSMRCEVLVHKLGRTSKPSPRQLVLTKKNLYLVITKIVDQKLTQQVEKKFAVSSIDSVGLTNLQDDWVAIRNKSSQNGDMFLRCFFKTEFITTLKRINRNIQVIVGPTIQYCRKPGKVQTVKTAKDETTKDYDYYKSGTIHVGTGLPPTSKSKPFPRLATGGSTAAARGPRPVVQNKPAATKPVSMPAAKSKPAPMANPVSTAQQTQNRPPAPAMQARPNTTQAA
Consider B1, for which the binding result is “binds”.
